Activity (% of reads on target) and activity (% GFP excision) data for three substances are collected here from US20250002876.

Common to all, as to assay: cell_activity
In series [1] the test system is ZnF-MLT transposase fusion, covalent linker (Myotis lucifugus). To be noted: amplicon-seq.
Series [2] deals with ZnF-MLT transposase, non-covalent linker (Myotis lucifugus). To be noted: HEK293 landing pad, amplicon-seq.
For series [3], the system named is MLT K350A S8P,C13R,K350A (Myotis lucifugus). The conditions noted are these: HEK293; integration >=10% GFP.
The subject of series [4] is MLT K350A/D416A S8P,C13R,K350A,D416A (Myotis lucifugus). The conditions noted are these: HEK293; integration >=10% GFP.

Consider “Landing pad, single ZnF site next to TTAA”, for which the activity (% of reads on target) worked out at 24 in series [1] (HEK293 landing pad) and 12 in series [2].
As for “TTAACACTTGGATTGCGGGAAACGAGTTAAGTCGGCTCGCGTGAATTGCGCGTACTCCGCGGGAGCCGTCTTAACTCGGTTCATATAGATTTGCGGTGGAGTGCGGGAAACGTGTAAACTCGGGCCGATTGTAACTGCGTATTACCAAATATTTGTT / AATTATTTATGTACTGAATAGATAAAAAAATGTCTGTGATTGAATAAATTTTCATTTTTTACACAAGAAACCGAAAATTTCATTTCAATCGAACCCATACTTCAAAAGATATAGGCATTTTAAACTAACTCTGATTTTGCGCGGGAAACCTAAATAATTGCCCGCGCCATCTTATATTTTGGCGGGAAATTCACCCGACACCGTAGTGTTAA [MLT donor left and right ITRs]”, the activity (% GFP excision) in series [3] and in series [4] was over 20 throughout.
Regarding “CTCCACTGTGGGGTGCCGCAGTGGAGATGACTTGTTTGTTAACGGCACTTTAACAG (double strand) [Landing pad, ZnF sites on both sides of TTAA]”, the activity (% of reads on target) in series [1] (HEK293 plasmid landing pad, TTAA 15 bp from site) amounted to 42; in series [2], 29.
